The record followed here is the nanobody polyreactivity screen of Harvey et al. (2022).

The nature of this data set: yeast display, Sf9 membrane polyspecificity reagent, FACS + sequencing; frameworks hold sequencing errors. Put shortly:
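A synthetic nanobody library was expressed on Saccharomyces cerevisiae BJ5465 by galactose induction for 36–48 hours. The library was stained for 1 hour at 4 °C with 10% biotinylated, detergent-solubilized Sf9 membrane reagent and enriched with streptavidin microbeads before FACS. Low and high (top ~1%) gates were set on anti-HA fluorescence for expression and streptavidin fluorescence for reagent binding, and each polyreactivity label reflects the gate of origin.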
With “QVQLVESGGGLVQAGGSHRFSCAASGFTFGHDTMGWYRQAPGKERELVAAITWRGGTYYADSEKGRFTISRDNAMNTVYLQMNSMKPEDTAVYYCAKRRASRYYWGQGTQVTVSS”, the “polyreactivity (PSR sort gate)” value is recorded as “high polyreactivity”.
Regarding “QVQLVESGGGLVQAGGSHRLICAASGFNFYIYAMGWYRQAPGKERELVAAISWNGGSTYYADSVKGRFTISRDIAKNTVYLQMNSLKPEDTAVYYCAARHYYFYYHGYVKYDYWGQGTQVTVSS”, the “polyreactivity (PSR sort gate)” value is on record as “high polyreactivity”.
On to “QVQLVESGGGLVQAGGSHRLSCAASGFIFRRNAMGWYRQAPGKERELVAAITKSGGSTYYADSVKGRFTISRDNAKNTVYLQMNSLKPEDTAVYYCAAKRQTGQSYYWGQGTQVTVSS”, for which the “polyreactivity (PSR sort gate)” value is given as “high polyreactivity”.
Consider “QVQLVESGGGLVQAGGSHRLSCAASGFTFIGYPMGWYRQAPGKERELVAAITQSGGSTFYADSVKGRFTISRDNAKNTVYLHMNSLKPEDTAVYYCNAYRKFRYWGHGTQVTVSS”, for which the “polyreactivity (PSR sort gate)” value was “low polyreactivity”.
To “QVQLVESGGGLVQAGGSHRLSCAASGIIIEGNVMGWSRQSPGKQSELVAAITSDTSTNYGDSVKGRFTISRDNATNTVYLQMNSLKPEDTGVYYCNAVIGTDYFYSGTAEFYYWGQGTQVTVSS” belongs “low polyreactivity”; to “QVQLVESGGGLVQAGGSHRLSCAASGITFPYYAMGCYRQAPVKERELVAAISSSGGSTYYADSVKGRFTISRDNAKNTVYLQMNSLKPEDTAVYYCNKRYVVYPGNYWRYDYWGQGTQVTVSS”, “high polyreactivity”.
To “QVQLVESGGGLVQAGGSHRLSCAASGLIIGYYDMGWYRQAPGQERELVAAITQSSGSTYYADSVKGRFTISRDNAKNTVYLQMNRLKREDTAVYYCARRKWKFADNYKLDYWGQGTQVTVSS” belongs “low polyreactivity”.
Under “QVQLVESGGGLVQAGGSHRLSCAASGLTLYQYTMGWYRQAPGKERELVAAITTSGSTYYADSVKGRFTISRDNEKNTVYLQMNSLKPEDTAVYYCAAVVYYVDTLSGYRYGYDYWGQCTQVTVSS” stands “low polyreactivity”.
For “QVQLVESGGGLVQAGGSHRLSCAASGRIFGRNAMGCYRQAPGKERELVATITSGGGTNYADSVKGRFTISRDNAKNTVYLQMNSLKPEDTAVYYCAATVAILRKFWMDYWGQGTQVTVSS”, the “polyreactivity (PSR sort gate)” value was “low polyreactivity”.
To “QVQLVESGGGLVQAGGSHRLSCAASGRIFRVYVMGWYRQAPGKEREFVAAISRRGSRTYADSVKGRFTISRDNAKNTVYLLMNSLKTEDTAVYYWAAECGYQAHPGQGDYWGQGTQVTVSS” belongs “high polyreactivity”; to “QVQLVESGGGLVQAGGSHRLSCAASGRIFVGYAMGWYRQAPGKERELVAGISGGGRTNYADSVKGRFTISRDNAKNTVYLQMNSLKPEDTAVYYCIAGGSVWYRSQRGWKGYYNQMDYWGQGTQVTVSS”, “high polyreactivity”; to “QVQLVESGGGLVQAGGSHRLSCAASGRIIESYAMGWYRQAPGKERELVAAISSNDGSTYYADSVKGRFTISRDNAKNTVYLQMNSLKPEDTAVYDCAAELGQVDYGGPSYDYWGQGTQVTVSS”, “low polyreactivity”.
To “QVQLVESGGGLVQAGGSHRLSCAASGRLFRYYDMGWYRQAPGKERELVARISSTGRTYADSVMGRFTISRDNAKNTVYLQMNSLKPVDTAVYYCAALFHTRGHSKYDYWGQGTQVTVSS” belongs “high polyreactivity”; to “QVQLVESGGGLVQAGGSHRLSCAASGRTFGHNAMGWYRQAPGKEMEFVASIRSGGITDYADSVKGRFTISRDNAKNTVYLQMNSLKPEDTAVYYCAADVLDWYDLLRDDYWGQGTQVTVSS”, “low polyreactivity”; to “QVQLVESGGGLVQAGGSHRLSCAASGRTFWYNAMGWYRQAPGKERELVAAITSGDSTNYADSVKGRFTISRDNAKNTVYLQMNSLKPEVTAAYYCAAEGRPNWYYWAEGYYWGQGTQVTVSS”, “high polyreactivity”.
“QVQLVESGGGLVQAGGSHRLSCAASGRTFYINAMGWYRQAPGKERELVAAISIRGGGTYYADSVKGRFTISRDNAKNTVYLQMNSLKPEDTAVYYCAAEYTEGYTHDYWGQGTQVTVSS”: the “polyreactivity (PSR sort gate)” value was “low polyreactivity”.
